In paper PMC10052277, “Detection of SARS-CoV-2 receptor binding domain using fluorescence probe and DNA flowers enabled by rolling circle amplification”:
Read-outs that look alike come from different tables or passages of the source.

Tests used:
[1] = biological target: T1, SARS-CoV-2 Spike RBD (SARS-CoV-2, UniProt P0DTC2 319-541); conditions: protein: commercial; tags: C-terminal 6xHis; label: 5'-FAM
[2] = biological target: T1, SARS-CoV-2 Spike RBD

B1: FAM-Aptamer (ssDNA)
DNA: CAGCACCGACCTTGTGCTTTGGGAGTGCTGGTCCAAGGGCGTTAATGGACA
binding result [1]: binds

B2: Aptamer (ssDNA)
DNA: B1 DNA
binding result [2]: binds
